Experimental data as given in patent US20250297019A1 (Genentech, published 2025).

T1: mouse CCR8 (mouse, UniProt P56484 1-353)
T1 construct: format of the KD assay of the anti-murine antibody is not described; also called mCCR8; murine CCR8
T1 sequence: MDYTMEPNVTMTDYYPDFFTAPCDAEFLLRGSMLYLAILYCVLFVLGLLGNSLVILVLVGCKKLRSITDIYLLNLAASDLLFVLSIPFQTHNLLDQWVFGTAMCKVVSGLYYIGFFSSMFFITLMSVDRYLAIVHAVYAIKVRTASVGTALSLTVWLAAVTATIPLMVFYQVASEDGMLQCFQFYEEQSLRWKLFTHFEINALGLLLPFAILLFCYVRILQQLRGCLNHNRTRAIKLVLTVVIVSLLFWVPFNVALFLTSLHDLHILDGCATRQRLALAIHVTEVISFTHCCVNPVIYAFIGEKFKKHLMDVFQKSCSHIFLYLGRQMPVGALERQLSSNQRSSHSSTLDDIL

B1: hu.Ab5.H1L1 (antibody, human IgG1, V domains shown)
VH: EQQLLESGGGLVQPGGSLRLSCAVSGIDLSTYAMGWVRQAPGKGLEWIGLIHRSGRTYYATWAKGRFTISKDSSKTTVYLQMNSLRAEDTAVYFCTRSYPDYSATASIWGPGTTVTVSS
VL: DIQVTQSPSSLSASVGDRVTITCQASENIANALAWYQQKPGKPPKFLIYGASNLASGVPSRFSGSGSGTDFTFTISSLQPEDIATYYCQQAYYGNSFVEGTFGGGTKVEIK
B2: mouse surrogate anti-CCR8 mAb (antibody, mouse IgG2a, kappa, V domains shown)
VH: QSVKESGGRLVTPGGSLTLTCTVSRIDLNEYSMAWVRQAPGKGLEWIGYIDAGSGSAYYASWAKGRFTISKTSSTTVDLEMTTLTTEDTATYFCARDVYPGYTTGTNLGLWGPGTLVTVSS
VL: AAVLTQTPASVSAAVGGTVSISCRSSKSVYSNYLSWYQQKPGQPPKLLIYRASTLTPGVPSRFKGSGSGTQFSLTIRDVQSADAGSYYCAGGYSSGSDNTFGGGTKLEIKR
notes: Chimeric rabbit-derived murine IgG2a; also called Anti-mCCR8; anti-murine CCR8 antibody
B3: hu.Ab3.H1L1 (antibody, human IgG1, kappa, V domains shown)
VH: EQQLVESGGGLVQPGGSLRLSCAVSGFSLSSYAMSWVRQAPGKGLEWIGVISASGRIIYATWAKGRFTISKDSAKTSVYLQMNSLRDEDTAVYFCARGVPSYSLVMSDWGPGTTVTVSS
VL: EPVMTQSPATLSVSPGERATLSCQASQSISNALAWYQQKPGQPPRLLIYEVSKVASGVPARFSGSGSGTEFTLTISSLQSEDFAVYYCQSAYYGNSYVWGAFGQGTKVEIKR
B4: hu.Ab4.H1L1 (antibody, human IgG1, V domains shown)
VH: EQQLLESGGGLVQPGGSLRLSCAVSGFSLSNYAMIWVRQAPGKGLEWVGTISLGGYTYYANWAKGRFTISKDSSKTTVYLQMNSLRAEDTAVYFCARARWSTDSAIYTYAFDPWGPGTLVTVSS
VL: DYQMTQSPSSLSASVGDRVTITCQASQSISSYLSWYQQKPGKRPKLLIYKASTLASGVPSRFSGSGSGTDFTLTISSLQPEDFATYYCQQGYTSSNIDNIFGGGTKVEIK
B5: Afuc.hu.Ab5.H13L1 (antibody, human IgG1, kappa)
heavy: not shown
light: DIQVTQSPSSLSASVGDRVTITCQASENIANALAWYQQKPGKPPKFLIYGASNLASGVPSRFSGSGSGTDFTFTISSLQPEDIATYYCQQAYYGNSFVEGTFGGGTKVEIKRTVAAPSVFIFPPSDEQLKSGTASVVCLLNNFYPREAKVQWKVDNALQSGNSQESVTEQDSKDSTYSLSSTLTLSKADYEKHKVYACEVTHQGLSSPVTKSFNRGEC
modifications: afucosylated Fc N-glycan (position Asn 299 as printed); about 80% to about 95% afucosylation
notes: also called afucosylated hu.Ab5.H13L1; Afuc.Ab5.H13L1
B6: hu.Ab5.H13L1 (antibody, human IgG1, kappa)
heavy: not shown
light: B5 light
notes: Fucosylated human IgG1 kappa; also called Ab5 variant; huCCR8 antibody hu.Ab5.H13L1 (hIgG1)
B7: hu.Ab4.H12L3 (antibody, human IgG1, kappa)
heavy: not shown
light: DYQMTQSPSSLSASVGDRVTITCQASQSISSYLSWYQQKPGKAPKLLIYKASTLASGVPSRFSGSGSGTDFTLTISSLQPEDFATYYCQQGYTSSNIDNIFGGGTKVEIKRTVAAPSVFIFPPSDEQLKSGTASVVCLLNNFYPREAKVQWKVDNALQSGNSQESVTEQDSKDSTYSLSSTLTLSKADYEKHKVYACEVTHQGLSSPVTKSFNRGEC
B8: Afuc.hu.Ab4.H12L3 (antibody, human IgG1, kappa)
heavy: not shown
light: B7 light
modifications: afucosylated Fc N-glycan (position Asn 299 as printed); about 80% to about 95% afucosylation
notes: also called afucosylated hu.Ab4.H12L3; Afuc.Ab4.H12L3

Tests used:
human CCR8 [1] = target: T2, human CCR8 (human, UniProt P51685 1-355); test: cell-based or functional assay
mouse CCR8 = target: T1, mouse CCR8; test: assay not described ('in vitro assays')
human CCR8 [2] = target: T2, human CCR8; test: cell-based or functional assay; remark: listed apart in the source
human CCR8 [3] = target: T2, human CCR8; test: cell-based or functional assay; remark: listed apart in the source
[4] = target: T3, human Fc gamma receptor IIIa V158, GST fusion (human, UniProt P08637 17-208); test: ELISA, captured GST-FcgR3a
T3 construct: extracellular domain; also called GST-FcgR3a.V158; FcgR3a.V158 protein; not shown: Gly-6xHis-glutathione S-transferase (GST) tag at the C-terminus
T3 sequence (P08637 17-208 F176V): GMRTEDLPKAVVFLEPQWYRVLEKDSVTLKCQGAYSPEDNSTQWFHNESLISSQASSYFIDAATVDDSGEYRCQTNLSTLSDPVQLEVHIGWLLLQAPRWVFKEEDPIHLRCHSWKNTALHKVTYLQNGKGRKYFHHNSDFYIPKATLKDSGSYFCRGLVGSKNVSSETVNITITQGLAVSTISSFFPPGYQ
Description: (§1) Briefly, an anti-GST antibody was coated on Nunc MAXISORP™ plates. GST-FcgR3a.V158 and GST-FcgR3a.F158 were captured at 500 ng/mL. Plates were then washed and then serially diluted anti-CCR8 antibodies starting at 100 μg/mL were incubated on the plate for 1 hour at room temperature. Plates were washed and bound antibody was detected by an HRP-conjugated anti-human IgG secondary antibody. Absorbance at 450 nm was measured by a plate reader. The data were fitted using a 4-parameter logistic curve in SOFTM^AX® Pro.

[5] = target: T4, human Fc gamma receptor IIIa F158, GST fusion (human, UniProt P08637 17-208); test: ELISA, captured GST-FcgR3a
T4 construct: extracellular domain; also called GST-FcgR3a.F158; FcgR3a.F158 protein; not shown: Gly-6xHis-glutathione S-transferase (GST) tag at the C-terminus
T4 sequence (P08637 17-208): as the sequence (P08637 17-208 F176V) above, with V160F counted along it
Description: as §1

cynomolgus monkey CCR8 = target: T5, cynomolgus monkey CCR8 (cynomolgus monkey, UniProt O97665 1-356 (rhesus entry)); test: competition of unlabelled antibody with a fixed concentration of the 125I-labelled same antibody on CHO cells stably expressing cyno CCR8 (CHO-cynoCCR8), filter plates, gamma counting
T5 construct: On CHO cells stably expressing cyno CCR8 or on cyno blood Treg cells; also called cyno CCR8; cynoCCR8
T5 sequence (O97665 other isoform, or with tags, fused parts or gaps): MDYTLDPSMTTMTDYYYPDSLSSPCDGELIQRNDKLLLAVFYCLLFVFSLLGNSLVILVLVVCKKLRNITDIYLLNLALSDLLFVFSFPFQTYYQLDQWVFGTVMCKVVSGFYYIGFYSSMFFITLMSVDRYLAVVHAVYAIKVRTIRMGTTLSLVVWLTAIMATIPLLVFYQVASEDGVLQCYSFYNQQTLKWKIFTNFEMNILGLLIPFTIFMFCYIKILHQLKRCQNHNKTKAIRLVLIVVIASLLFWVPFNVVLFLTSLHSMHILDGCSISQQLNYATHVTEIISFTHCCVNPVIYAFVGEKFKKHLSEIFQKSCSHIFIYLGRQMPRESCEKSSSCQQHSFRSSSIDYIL

human CCR8 [6] = target: T2, human CCR8; test: cell-based or functional assay; remark: listed apart in the source

Binder	ADCC EC50 (calcein release; NK-92_F158 effector cells, CHO/hCCR8.Gna15 target cells) (human CCR8 [1]) [nM]	ADCP EC50, macrophages of donor HR/FF (FIG. 14A) (human CCR8 [3]) [nM]	ADCP EC50, macrophages of donor RR/FF (FIG. 14B) (human CCR8 [3]) [nM]	ADCP EC50, macrophages of donor RR/VF (FIG. 14D) (human CCR8 [3]) [nM]	further results
B1	0.02	–	–	–	–
B2	–	–	–	–	Kd (mouse CCR8): 0.218 nM
B3	0.02	–	–	–	–
B4	0.08	–	–	–	IC50 of CCL1 blocking (Ca2+ influx, CHO/hCCR8.Gna15 cells, 20 nM CCL1) (human CCR8 [2]): 57.9 nM
B5	–	0.017	0.2	0.5	ADCP EC50, macrophages of donor HR/FF (FIG. 14E) (human CCR8 [3]): 0.022 nM; ADCP EC50, macrophages of donor HR/VF (FIG. 14C) (human CCR8 [3]): 0.01 nM; fold increase in binding potency over the fucosylated counterpart [4]: ~10 fold; fold increase in binding potency over the fucosylated counterpart [5]: ~10 fold
B6	–	–	–	–	IC50 (read off the curve) (cynomolgus monkey CCR8): ~0.04 nM
B7	–	0.35	0.81	0.41	IC50 of ligand blocking (Ca2+ influx, 20 nM CCL1) (human CCR8 [6]): 57.9 nM
B8	–	0.025	0.12	0.079	ADCP EC50, macrophages of donor HR/FF (FIG. 14E) (human CCR8 [3]): 0.035 nM; ADCP EC50, macrophages of donor HR/VF (FIG. 14C) (human CCR8 [3]): 0.017 nM; fold increase in binding potency over the fucosylated counterpart [4]: ~10 fold; fold increase in binding potency over the fucosylated counterpart [5]: ~10 fold
